IC50 data for 34 molecules are collected here from patent US20240116985A1, “STAPLED PEPTIDES AND METHODS THEREOF” (priority 2020, published 2024).

Starred links: 1 amine or outer side, 2 acyl side, 3 side chain; linkers in the order of their positions; H or OH if unused. Positions of bridges follow the written chain, without caps; N, C: chain ends. Non-standard residues stand in square brackets, D forms with d. Primed or numbered codes have the meaning given here. No end group written: not given here. *: point of attachment. PyrS2″ = (S)-3-amino-1-((pent-4-en-1-yloxy)carbonyl)pyrrolidine-3-carboxylic acid (stapling residue), C=CCCCOC(=O)N1CC[C@@](N[*:1])(C(=O)[*:2])C1; B5(23) = 2-amino-2-(pent-4-en-1-yl)hept-6-enoic acid (2,2-bis(4-pentenyl)glycine), stitching residue, C=CCCCC(CCCC=C)(N[*:1])C(=O)[*:2]; B5(4) = 2,2-bis(4-pentenyl)glycine = 2-amino-2-(pent-4-en-1-yl)hept-6-enoic acid (stitching residue), C=CCCCC(CCCC=C)(N[*:1])C(=O)[*:2]; B5(5) = 2,2-bis(4-pentenyl)glycine, 2-amino-2-(pent-4-en-1-yl)hept-6-enoic acid (stitching residue), C=CCCCC(CCCC=C)(N[*:1])C(=O)[*:2]; TfeGA = (S)-2-amino-3-((carboxymethyl)(2,2,2-trifluoroethyl)amino)propanoic acid, O=C([C@H](CN(CC(=O)[*:3])CC(F)(F)F)N[*:1])[*:2]; PyrS2 = (S)-3-amino-1-((pent-4-en-1-yloxy)carbonyl)pyrrolidine-3-carboxylic acid, C=CCCCOC(=O)N1CC[C@@](N[*:1])(C(=O)[*:2])C1; (Pip)GlnR = (S)-2-amino-5-oxo-5-(piperidin-1-yl)pentanoic acid, O=C(CC[C@H](N[*:1])C(=O)[*:2])N1CCCCC1; B5(3) = 2,2-bis(4-pentenyl)glycine (stitching residue), C=CCCCC(CCCC=C)(N[*:1])C(=O)[*:2]; ProSAm3 = (allylsulfonyl)-D-proline, C=CCS(=O)(=O)N1CCC[C@@H]1C(=O)*; Phe(3-COOH) = N[C@@H](Cc1cccc(C(=O)O)c1)C(=O)O; Phe(2-CF3) = N[C@@H](Cc1ccccc1C(F)(F)F)C(=O)O; Bta = N[C@@H](Cc1csc2ccccc12)C(=O)O; αAllylPro = C=CC[C@@]1(C(=O)O)CCCN1; tBuAla = CC(C)(C)C[C@H](N)C(=O)O; 3Thi = N[C@@H](Cc1ccsc1)C(=O)O; R5 = C=CCCC[C@@](C)(N)C(=O)O; 2F3MeF(3) = Phe analogue; Abu = CC[C@H](N)C(=O)O; Aib = CC(C)(N)C(=O)O

First the molecules themselves.
B1: I-1567 (peptide)
peptide: Ac-[αAllylPro]D[tBuAla][B5(23)]NQAAFN[PyrS2][3Thi][Bta]Q-NH2
modifications: staple 1-4, 4-11; not fully specified; printed as Ac-PL3-Asp-Npg-B5-Asn-Gln-Ala-Ala-Phe-Asn-PyrS2-3Thi-BztA-Gln-NH2
B2: I-1577 (peptide)
peptide: [ProSAm3]D[tBuAla][B5(4)]DDAAFN[PyrS2″][3Thi][Bta]Q-NH2
modifications: staple (positions not given here); staple 4-11; not fully specified (bridges); printed as ProSAm3-Asp-Npg-B5-Asp-Asp-Ala-Ala-Phe-Asn-PyrS2-3Thi-BztA-Gln-NH2; also: staple isomer of later-eluting HPLC peak
B3: I-1576 (peptide)
peptide: [ProSAm3]D[tBuAla][B5(4)]DDAAFN[PyrS2″][3Thi][Bta]Q-NH2
modifications: staple (positions not given here); staple 4-11; not fully specified (bridges); printed as ProSAm3-Asp-Npg-B5-Asp-Asp-Ala-Ala-Phe-Asn-PyrS2-3Thi-BztA-Gln-NH2; also: staple isomer of earlier-eluting HPLC peak

One test has as its target full-length beta-Catenin (Uniprot ID P35222) (Homo sapiens (Human)) (UniProt P35222). Put plainly: fluorescence polarization competition; full-length beta-catenin, competitor 5FAM-TCF4(10-53). (In general: In fluorescence polarisation assays a small probe gives low polarisation when free and higher when bound to something large.)
Target sequence in this assay (P35222 whole entry): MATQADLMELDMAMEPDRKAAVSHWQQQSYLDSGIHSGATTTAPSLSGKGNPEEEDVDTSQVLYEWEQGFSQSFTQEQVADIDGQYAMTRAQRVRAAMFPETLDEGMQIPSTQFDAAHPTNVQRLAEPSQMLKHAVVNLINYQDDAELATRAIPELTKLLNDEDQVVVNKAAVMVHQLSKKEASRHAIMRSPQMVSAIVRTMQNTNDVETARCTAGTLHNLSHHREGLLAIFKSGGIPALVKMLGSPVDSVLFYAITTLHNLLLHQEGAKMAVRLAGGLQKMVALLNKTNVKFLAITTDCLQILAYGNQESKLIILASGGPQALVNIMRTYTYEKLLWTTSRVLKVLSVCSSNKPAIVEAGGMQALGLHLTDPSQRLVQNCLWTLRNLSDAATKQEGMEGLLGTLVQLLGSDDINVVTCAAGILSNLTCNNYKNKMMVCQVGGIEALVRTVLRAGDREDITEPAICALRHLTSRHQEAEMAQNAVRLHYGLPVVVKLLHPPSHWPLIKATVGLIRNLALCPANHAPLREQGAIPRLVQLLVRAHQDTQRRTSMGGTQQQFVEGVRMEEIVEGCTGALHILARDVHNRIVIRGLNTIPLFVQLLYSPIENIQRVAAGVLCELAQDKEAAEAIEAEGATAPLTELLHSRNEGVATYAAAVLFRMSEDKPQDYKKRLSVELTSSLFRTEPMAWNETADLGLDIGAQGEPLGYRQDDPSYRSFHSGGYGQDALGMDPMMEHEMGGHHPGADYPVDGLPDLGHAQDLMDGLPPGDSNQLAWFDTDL
As for Ac-[αAllylPro]D[tBuAla][B5(4)]D[TfeGA]AAFL[PyrS2″][3Thi][Bta]V-NH2 (staple 1-4, 4-11; not fully specified) [I-1752], the IC50 amounted to 87 nM. This lies in the double-digit nanomolar range.

Take Ac-[αAllylPro]D[tBuAla][B5(5)]D[TfeGA]AAFL[PyrS2″][3Thi][Bta]F-NH2 (staple 1-4, 4-11) [I-1750]: the IC50 turned out to be 104 nM.

On to Ac-[αAllylPro]D[tBuAla][B5(5)]D[TfeGA]AAFL[PyrS2″][3Thi][Bta]L-NH2 (staple 1-4, 4-11) [I-1748], for which the IC50 worked out at 141 nM.

Ac-[αAllylPro]D[tBuAla][B5(4)]D[TfeGA]AAFL[PyrS2″][3Thi][Bta]V-NH2 (staple 1-4, 4-11; not fully specified) [I-1751] yielded an IC50 of 104 nM.

Turning to Ac-[αAllylPro]D[tBuAla][B5(4)]D[TfeGA]AAFL[PyrS2″][3Thi][Bta]F-NH2 (staple 1-4, 4-11; not fully specified) [I-1749], the IC50 amounted to 145 nM. The IC50 values of the last two molecules are within 1.5-fold of each other.

For a further test the target is unchanged. Put plainly: fluorescence polarization competition; full-length beta-catenin, 5FAM-TCF4(10-53) probe as competitor.
Target sequence in this assay (P35222 2-781 limits assumed): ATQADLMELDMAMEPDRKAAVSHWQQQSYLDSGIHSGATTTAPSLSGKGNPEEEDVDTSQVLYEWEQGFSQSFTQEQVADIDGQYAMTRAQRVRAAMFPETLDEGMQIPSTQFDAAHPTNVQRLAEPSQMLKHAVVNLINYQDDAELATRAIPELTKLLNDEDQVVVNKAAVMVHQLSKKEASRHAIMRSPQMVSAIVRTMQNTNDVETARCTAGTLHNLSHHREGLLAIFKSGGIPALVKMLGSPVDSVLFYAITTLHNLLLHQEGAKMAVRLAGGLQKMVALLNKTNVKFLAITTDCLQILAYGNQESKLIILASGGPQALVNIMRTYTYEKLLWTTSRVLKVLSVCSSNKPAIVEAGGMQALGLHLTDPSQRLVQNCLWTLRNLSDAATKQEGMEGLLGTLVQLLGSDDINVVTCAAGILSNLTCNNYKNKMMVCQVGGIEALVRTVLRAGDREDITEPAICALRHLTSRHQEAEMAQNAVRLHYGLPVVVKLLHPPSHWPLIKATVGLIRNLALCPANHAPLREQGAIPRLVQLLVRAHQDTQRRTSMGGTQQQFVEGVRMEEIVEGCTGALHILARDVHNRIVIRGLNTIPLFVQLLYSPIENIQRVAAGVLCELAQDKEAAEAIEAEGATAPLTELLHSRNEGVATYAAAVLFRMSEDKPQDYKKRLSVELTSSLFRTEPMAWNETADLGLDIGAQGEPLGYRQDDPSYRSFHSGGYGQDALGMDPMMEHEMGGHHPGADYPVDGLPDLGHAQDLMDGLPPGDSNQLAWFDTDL
On to Ac-[αAllylPro]D[tBuAla][B5(5)]NT[Aib]AFN[PyrS2″][3Thi][Bta]W-NH2 (staple 1-4, 4-11) [Ac-PL3-Asp-Npg-B5-Asn-Thr-Aib-Ala-Phe-Asn-PyrS2-3Thi-BztA-Trp-NH2], for which the IC50 is 754 nM. In other words, the sub-micromolar range.

On to Ac-PD[tBuAla][R5]DDAAFL[PyrS2][3Thi][Bta]Q-NH2 (staple 4-11; also: staple -CH=CH- reduced to -CH2-CH2-) [I-1810], for which the IC50 stood at 416 nM.

Take B1: the IC50 is 182 nM.

The molecule Ac-[αAllylPro]D[tBuAla][B5(5)]NT[Aib]AFN[PyrS2″][3Thi][Bta]L-NH2 (staple 1-4, 4-11) [Ac-PL3-Asp-Npg-B5-Asn-Thr-Aib-Ala-Phe-Asn-PyrS2-3Thi-BztA-Leu-NH2] gave an IC50 of 627 nM.

In turn, Ac-[αAllylPro]D[tBuAla][B5(5)]NT[Aib]AFN[PyrS2″][3Thi][Bta]V-NH2 (staple 1-4, 4-11) [Ac-PL3-Asp-Npg-B5-Asn-Thr-Aib-Ala-Phe-Asn-PyrS2-3Thi-BztA-Val-NH2] registered an IC50 of 475 nM.

Consider Ac-[αAllylPro]D[tBuAla][B5(3)]NT[Aib]AFN[PyrS2″][3Thi][Bta]K-NH2 (staple 1-4, 4-11) [Ac-PL3-Asp-Npg-B5-Asn-Thr-Aib-Ala-Phe-Asn-PyrS2-3Thi-BztA-Lys-NH2], for which the IC50 was found to be 165 nM.

For Ac-[αAllylPro]D[tBuAla][B5(3)]D[TfeGA]AAFL[PyrS2″][3Thi][Bta][Me2Gln]A-NH2 (staple 1-4, 4-11) [Ac-PL3-Asp-Npg-B5-Asp-TfeGA-Ala-Ala-Phe-Leu-PyrS2-3Thi-BztA-Me2Gln-Ala-NH2], the half-maximal inhibitory concentration (IC50) came out at 10 nM.

As for Ac-[αAllylPro]D[tBuAla][B5(4)]SNAAFN[PyrS2][3Thi][Bta]Q-NH2 (staple 1-4, 4-11) [I-1561], the IC50 turned out to be 2600 nM.

Turning to Ac-[αAllylPro]D[tBuAla][B5(4)]NYAAFN[PyrS2][3Thi][Bta]Q-NH2 (staple 1-4, 4-11; also: staple isomer of earlier-eluting HPLC peak) [I-1568], the IC50 amounted to 7180 nM.

In the case of B2, the IC50 is 45 nM. Against the preceding molecule, the IC50 is about 160-fold lower.

In turn, Ac-[αAllylPro]D[tBuAla][B5(4)]LNAAFN[PyrS2][3Thi][Bta]Q-NH2 (staple 1-4, 4-11; also: staple isomer of earlier-eluting HPLC peak) [I-1562] showed an IC50 of 5020 nM.

Consider Ac-[αAllylPro]D[tBuAla][B5(23)]NQAAFN[PyrS2][3Thi][Bta]Q-NH2 (staple 1-4, 4-11; also: earlier-eluting HPLC staple isomer) [I-1566], for which the IC50 was 231 nM.

Take Ac-[αAllylPro]D[tBuAla][B5(3)]NT[Aib]AFN[PyrS2″][3Thi][Bta]Y-NH2 (staple 1-4, 4-11) [Ac-PL3-Asp-Npg-B5-Asn-Thr-Aib-Ala-Phe-Asn-PyrS2-3Thi-BztA-Tyr-NH2]: the IC50 came out at 310 nM.

B3: the IC50 is 224 nM.

Consider Ac-[αAllylPro]D[tBuAla][B5(4)]NLAAFN[PyrS2][3Thi][Bta]Q-NH2 (staple 1-4, 4-11) [I-1570], for which the IC50 turned out to be 1340 nM.

On to Ac-[αAllylPro]D[tBuAla][B5(5)]D[Phe(3-COOH)][Aib]AF[Abu][PyrS2″][3Thi][Bta][(NHEt)GlnR]A-NH2 (staple 1-4, 4-11) [Ac-PL3-Asp-Npg-B5-Asp-3COOHF-Aib-Ala-Phe-Abu-PyrS2-3Thi-BztA-[NHEt]GlnR-Ala-NH2], for which the IC50 was 7 nM.

As to Ac-[αAllylPro]D[tBuAla][B5(3)]D[Phe(3-COOH)][Aib]AF[Abu][PyrS2″][3Thi][Bta][Me2Gln]A-NH2 (staple 1-4, 4-11) [Ac-PL3-Asp-Npg-B5-Asp-3COOHF-Aib-Ala-Phe-Abu-PyrS2-3Thi-BztA-Me2Gln-Ala-NH2], the IC50 came to 7 nM.

Ac-[αAllylPro]D[tBuAla][B5(5)]D[Phe(3-COOH)][Aib]AF[Abu][PyrS2″][3Thi][Bta][(Pip)GlnR]A-NH2 (staple 1-4, 4-11) [Ac-PL3-Asp-Npg-B5-Asp-3COOHF-Aib-Ala-Phe-Abu-PyrS2-3Thi-BztA-[Pip]GlnR-Ala-NH2] showed an IC50 of 7 nM.

Ac-[αAllylPro]D[tBuAla][B5(5)]D[TfeGA]AAFL[PyrS2″][3Thi][Bta][(Pip)GlnR]A-NH2 (staple 1-4, 4-11) [Ac-PL3-Asp-Npg-B5-Asp-TfeGA-Ala-Ala-Phe-Leu-PyrS2-3Thi-BztA-[Pip]GlnR-Ala-NH2]: the IC50 stood at 19 nM.

Molecule Ac-[αAllylPro]D[tBuAla][B5(3)]D[Phe(3-COOH)]QAFL[PyrS2″][2F3MeF(3)][SbMe2NapA]A-NH2 (staple 1-4, 4-11) [Ac-PL3-Asp-Npg-B5-Asp-3COOHF-Gln-Ala-Phe-Leu-PyrS2-2F3MeF-SbMe2NapA-Ala-NH2] registered an IC50 of 164 nM.

Molecule Ac-[αAllylPro]D[tBuAla][B5(4)]LNAAFN[PyrS2][3Thi][Bta]Q-NH2 (staple 1-4, 4-11; also: staple isomer of later-eluting HPLC peak) [I-1563] gave an IC50 of 2850 nM.

Turning to Ac-[αAllylPro]D[tBuAla][B5(3)]D[Phe(3-COOH)]QAFL[PyrS2″][Phe(2-CF3)][RbMe2NapA]A-NH2 (staple 1-4, 4-11) [Ac-PL3-Asp-Npg-B5-Asp-3COOHF-Gln-Ala-Phe-Leu-PyrS2-2F3MeF-RbMe2NapA-Ala-NH2], the IC50 was determined as 47 nM.

Regarding Ac-[αAllylPro]D[tBuAla][B5(5)]D[Phe(3-COOH)]AAFL[PyrS2″][Phe(2-CF3)][Bta][Me2Gln]A-NH2 (staple 1-4, 4-11) [Ac-PL3-Asp-Npg-B5-Asp-3COOHF-Ala-Ala-Phe-Leu-PyrS2-2F3MeF-BztA-Me2Gln-Ala-NH2], the IC50 turned out to be 15 nM.

Molecule Ac-[αAllylPro]D[tBuAla][B5(4)]QNAAFN[PyrS2][3Thi][Bta]Q-NH2 (staple 1-4, 4-11) [I-1560] came in with an IC50 of 368 nM.

Turning to Ac-[αAllylPro]D[tBuAla][B5(4)]NYAAFN[PyrS2][3Thi][Bta]Q-NH2 (staple 1-4, 4-11; also: staple isomer of later-eluting HPLC peak) [I-1569], the IC50 was 2660 nM.

Regarding Ac-[αAllylPro]D[tBuAla][B5(3)]D[Phe(3-COOH)]QAFL[PyrS2″][Phe(2-CF3)][2F3MeW]A-NH2 (staple 1-4, 4-11) [Ac-PL3-Asp-Npg-B5-Asp-3COOHF-Gln-Ala-Phe-Leu-PyrS2-2F3MeF-2F3MeW-Ala-NH2], the IC50 stood at 4750 nM.

For Ac-[αAllylPro]D[tBuAla][B5(3)]D[TfeGA]AAFL[PyrS2″][3Thi][Bta][(NHEt)GlnR]A-NH2 (staple 1-4, 4-11) [Ac-PL3-Asp-Npg-B5-Asp-TfeGA-Ala-Ala-Phe-Leu-PyrS2-3Thi-BztA-[NHEt]GlnR-Ala-NH2], the IC50 is 14 nM.

On to Ac-[αAllylPro]D[tBuAla][B5(5)]D[Phe(3-COOH)]AAFL[PyrS2″][Phe(2-CF3)][Bta][(NHEt)GlnR]A-NH2 (staple 1-4, 4-11) [Ac-PL3-Asp-Npg-B5-Asp-3COOHF-Ala-Ala-Phe-Leu-PyrS2-2F3MeF-BztA-[NHEt]GlnR-Ala-NH2], for which the IC50 worked out at 24 nM. Against the preceding molecule, the IC50 is about 1.7-fold higher.

On to Ac-[αAllylPro]D[tBuAla][B5(3)]D[Phe(3-COOH)][Aib]AF[Abu][PyrS2″][Phe(2-CF3)][Bta][Me2Gln]A-NH2 (staple 1-4, 4-11) [Ac-PL3-Asp-Npg-B5-Asp-3COOHF-Aib-Ala-Phe-Abu-PyrS2-2F3MeF-BztA-Me2Gln-Ala-NH2], for which the IC50 was 38 nM.

What is called IC50 is the midpoint of a concentration-inhibition curve. Read a low IC50 as inhibition by little substance.
